Here are results for 1 substance from patent US20160251408.

The test system of series [1] is VWF-034 (VWF D′D3-288XTEN-LVPR-Fc fusion construct).
The subject of series [2] is VWF-055 (VWF D′D3-Fc fusion construct; 34 aa VWF linker comprising an a2 region from FVIII).

Chain of VWF-034 (VWF D′D3-288XTEN-LVPR-Fc fusion construct) (chain, as listed by the source): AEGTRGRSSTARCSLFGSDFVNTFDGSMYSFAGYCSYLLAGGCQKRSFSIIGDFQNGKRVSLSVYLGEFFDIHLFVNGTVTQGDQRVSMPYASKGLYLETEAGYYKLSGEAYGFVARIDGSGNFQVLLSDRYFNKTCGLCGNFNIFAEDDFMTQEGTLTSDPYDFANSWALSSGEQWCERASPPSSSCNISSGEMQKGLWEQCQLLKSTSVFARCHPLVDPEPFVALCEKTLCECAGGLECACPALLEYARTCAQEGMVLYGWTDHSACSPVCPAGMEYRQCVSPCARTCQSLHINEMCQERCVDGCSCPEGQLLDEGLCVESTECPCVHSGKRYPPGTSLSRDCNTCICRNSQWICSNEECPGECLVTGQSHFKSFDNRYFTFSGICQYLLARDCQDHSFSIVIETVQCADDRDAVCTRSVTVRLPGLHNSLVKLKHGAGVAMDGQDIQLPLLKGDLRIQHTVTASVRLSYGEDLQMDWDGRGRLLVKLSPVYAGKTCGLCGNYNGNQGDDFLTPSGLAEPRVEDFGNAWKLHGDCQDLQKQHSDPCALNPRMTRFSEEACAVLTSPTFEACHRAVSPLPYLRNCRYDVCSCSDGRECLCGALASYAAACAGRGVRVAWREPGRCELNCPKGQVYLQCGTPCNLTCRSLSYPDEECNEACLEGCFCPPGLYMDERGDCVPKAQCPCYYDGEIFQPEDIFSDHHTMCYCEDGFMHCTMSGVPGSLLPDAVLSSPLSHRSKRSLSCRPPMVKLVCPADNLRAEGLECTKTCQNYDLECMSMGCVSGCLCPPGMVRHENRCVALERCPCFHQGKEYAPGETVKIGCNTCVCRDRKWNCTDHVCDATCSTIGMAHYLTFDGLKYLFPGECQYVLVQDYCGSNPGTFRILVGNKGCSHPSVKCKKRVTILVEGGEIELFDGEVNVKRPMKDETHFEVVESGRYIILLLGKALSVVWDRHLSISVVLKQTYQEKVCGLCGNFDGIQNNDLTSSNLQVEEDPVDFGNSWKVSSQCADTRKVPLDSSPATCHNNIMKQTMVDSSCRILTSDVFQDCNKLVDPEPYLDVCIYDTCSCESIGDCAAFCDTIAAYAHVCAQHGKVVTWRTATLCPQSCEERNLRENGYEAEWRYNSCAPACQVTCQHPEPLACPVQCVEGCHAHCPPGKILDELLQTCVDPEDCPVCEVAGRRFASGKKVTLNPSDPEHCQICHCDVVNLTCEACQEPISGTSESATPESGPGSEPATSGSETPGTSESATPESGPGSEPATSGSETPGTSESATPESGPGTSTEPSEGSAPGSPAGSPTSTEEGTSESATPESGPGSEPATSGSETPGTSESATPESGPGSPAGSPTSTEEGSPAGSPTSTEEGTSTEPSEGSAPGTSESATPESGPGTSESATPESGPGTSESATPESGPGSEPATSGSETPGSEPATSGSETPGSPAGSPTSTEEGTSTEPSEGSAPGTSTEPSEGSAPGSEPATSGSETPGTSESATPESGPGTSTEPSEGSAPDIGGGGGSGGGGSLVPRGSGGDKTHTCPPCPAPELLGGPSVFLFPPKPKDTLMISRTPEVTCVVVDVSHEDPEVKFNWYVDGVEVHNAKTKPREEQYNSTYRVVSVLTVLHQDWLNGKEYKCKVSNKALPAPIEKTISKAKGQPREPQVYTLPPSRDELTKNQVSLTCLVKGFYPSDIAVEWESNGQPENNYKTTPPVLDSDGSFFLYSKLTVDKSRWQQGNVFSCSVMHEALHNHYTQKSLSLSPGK
Chain of VWF-055 (VWF D′D3-Fc fusion construct; 34 aa VWF linker comprising an a2 region from FVIII) (chain, as listed by the source): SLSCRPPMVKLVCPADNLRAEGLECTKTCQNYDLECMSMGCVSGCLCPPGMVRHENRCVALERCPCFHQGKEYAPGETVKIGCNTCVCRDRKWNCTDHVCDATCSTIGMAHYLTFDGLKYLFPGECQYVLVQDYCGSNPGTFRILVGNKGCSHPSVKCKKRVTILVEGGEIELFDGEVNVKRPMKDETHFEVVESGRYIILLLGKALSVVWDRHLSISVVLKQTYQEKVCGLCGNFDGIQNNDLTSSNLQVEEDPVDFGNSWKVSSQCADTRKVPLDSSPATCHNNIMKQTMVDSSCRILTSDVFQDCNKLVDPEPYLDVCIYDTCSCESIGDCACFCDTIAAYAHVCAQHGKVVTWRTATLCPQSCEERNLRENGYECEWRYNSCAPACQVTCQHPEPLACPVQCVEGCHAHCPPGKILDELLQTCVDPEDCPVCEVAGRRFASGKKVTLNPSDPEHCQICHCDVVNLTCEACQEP

Regarding human alpha-thrombin, the “thrombin cleavage rate relative to VWF-031 (Biacore)” value in series [1] is given as “displayed slower cleavage compared to VWF-031”. Also, the “thrombin cleavage relative to VWF-039 (Biacore)” value in series [2] is reported as “displayed similar thrombin cleavage as VWF-039 construct”.
